pKd: −log10 of the molar value.
Tests used:
Assay in all cases: SPR; Biacore T200, CM-5 chip with coupled anti-GST nanobody; GST-tagged RNF38 LP variants captured, UBE2D2^S22R or UBE2D2^S22R,C85K–Ub as analyte; 25°C; 25 mM Tris–HCl pH 7.6, 150 mM NaCl, 1 mM DTT, 0.005% Tween-20; one-site binding model; two technical replicates
[1] = target: GST-RNF38^RING-R454A (UniProt Q9H0F5)
[2] = target: GST-RNF38^RING-R454C (UniProt Q9H0F5)
[3] = target: GST-RNF38^RING-R454D (UniProt Q9H0F5)
[4] = target: GST-RNF38^RING-R454E (UniProt Q9H0F5)
[5] = target: GST-RNF38^RING-R454F (UniProt Q9H0F5)
[6] = target: GST-RNF38^RING-R454G (UniProt Q9H0F5)
[7] = target: GST-RNF38^RING-R454H (UniProt Q9H0F5)
[8] = target: GST-RNF38^RING-R454I (UniProt Q9H0F5)
[9] = target: GST-RNF38^RING-R454K (UniProt Q9H0F5)
[10] = target: GST-RNF38^RING-R454L (UniProt Q9H0F5)
[11] = target: GST-RNF38^RING-R454M (UniProt Q9H0F5)
[12] = target: GST-RNF38^RING-R454N (UniProt Q9H0F5)
[13] = target: GST-RNF38^RING-R454P (UniProt Q9H0F5)
[14] = target: GST-RNF38^RING-R454Q (UniProt Q9H0F5)
[15] = target: GST-RNF38^RING-R454S (UniProt Q9H0F5)
[16] = target: GST-RNF38^RING-R454T (UniProt Q9H0F5)
[17] = target: GST-RNF38^RING-R454V (UniProt Q9H0F5)
[18] = target: GST-RNF38^RING-R454W (UniProt Q9H0F5)
[19] = target: GST-RNF38^RING-R454Y (UniProt Q9H0F5)
[20] = target: GST-RNF38^RING-WT (UniProt Q9H0F5)

Substance | pKd [1] | pKd [2] | pKd [3] | pKd [4] | pKd [5] | pKd [6] | pKd [7] | pKd [8] | pKd [9] | pKd [10] | pKd [11] | pKd [12] | pKd [13] | pKd [14] | pKd [15] | pKd [16] | pKd [17] | pKd [18] | pKd [19] | pKd [20]
UBE2D2^S22R (from UniProt P62837 1-147) (enzyme) | 3.78 | 3.68 | 3.57 | 3.12 | 3.76 | 3.41 | 3.70 | 3.95 | 3.88 | 3.78 | 3.86 | 3.21 | 3.61 | 4.00 | 3.82 | 3.80 | 3.76 | 4.20 | 3.86 | 3.98
UBE2D2^S22R,C85K–Ub (from UniProt P62837 2-147; P0CG48 1-76) (complex) | 4.22 | 4.25 | 4.16 | 3.95 | 4.34 | 4.04 | 4.25 | 4.38 | 4.52 | 4.33 | 4.51 | 3.97 | 4.08 | 4.53 | 4.23 | 4.20 | 4.27 | 4.61 | 4.62 | 5.60

Reference: paper PMC12326332
